T1: CTLA-4-hFc (immunogen A; hFc-labeled CTLA-4 extracellular domain protein) (human, UniProt P16410 36-161)
T1 construct: range 36-161; Made in HEK293 cells, purified on protein A; also called CLTA-4-hFc; CTLA-4 protein; not shown: human IgG Fc fragment (hFc) of the pCpC vector
T1 sequence (looked up): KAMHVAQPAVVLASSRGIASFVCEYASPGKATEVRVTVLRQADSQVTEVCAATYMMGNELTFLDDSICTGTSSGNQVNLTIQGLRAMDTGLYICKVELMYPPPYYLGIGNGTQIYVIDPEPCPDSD

T2: CTLA-4 on human T lymphocytes (PBMC, CD3+ T cells) (human, UniProt P16410 36-223)
T2 sequence (looked up): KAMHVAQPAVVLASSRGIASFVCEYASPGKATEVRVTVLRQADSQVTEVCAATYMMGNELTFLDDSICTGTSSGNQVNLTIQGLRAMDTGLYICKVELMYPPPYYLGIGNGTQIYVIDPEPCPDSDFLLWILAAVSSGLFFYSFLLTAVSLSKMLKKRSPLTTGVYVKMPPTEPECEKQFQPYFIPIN


Experiments:
[1] = target: T1, CTLA-4-hFc (immunogen A; hFc-labeled …); assay: blocking assay, CTLA-4 protein, competitor B7.2
Description: (§1) CTLA-4 extracellular domain protein (CTLA-4-hFc) was diluted with PBS to a final concentration of 1.0 μg/mL, and then added to a 96-well ELISA plate as 100 μl per well. The plate was covered with a plastic film and incubated overnight at 4° C. The plate was washed twice with plate washing solution [PBS containing 0.01% (v/v) Tween 20] on the next day, and added with blocking solution [PBS containing 0.01% (v/v) Tween 20 and 1% (w/w) BSA] and blocked at room temperature for 2 hours. […] After 2 hours, the plate was washed 3 times with a plate washing solution [PBS containing 0.01% (v/v) Tween 20]. HRP (horseradish peroxidase) labeled avidin diluent (purchased from Sigma) was added 100 microliters per well, and after the plate was incubated for 2 hours at 37° C., it was washed with plate washing solution [PBS containing 0.01% (v/v) Tween 20] for 3 times. […] TMB substrate was added to each well. After incubated at room temperature for 30 minutes, the plate was added with […] stop solution (1.0N HCl) to each well. An ELISA plate reader (SpectraMax 384plus, Molecular Device) was used to read the A450 nm value.

[2] = target: T1, CTLA-4-hFc (immunogen A; hFc-labeled …); assay: receptor-ligand blocking assay: CTLA-4 protein, antibody titrated, blocked ligand B7.1, inhibition (%)
Description: as §1

[3] = target: T1, CTLA-4-hFc (immunogen A; hFc-labeled …); assay: blocking assay, CTLA-4 protein, competitor B7.1
Description: as §1

[4] = target: T2, CTLA-4 on human T lymphocytes (PBMC, …); assay: cell-based or functional assay

Binder	% Block at 0.000128 nM [1]	% Block at 0.0128 nM [1]	% Block at 0.064 nM [1]	% Block at 0.32 nM [1]	% Block at 1.6 nM [1]	% Block at 8 nM [1]	% Block at 40 nM [1]	% Block at 200 nM [1]	% Block at 0.000128 nM [3]	% Block at 0.0128 nM [3]	% Block at 0.064 nM [3]	% Block at 0.32 nM [3]	% Block at 1.6 nM [3]	% Block at 8 nM [3]	% Block at 40 nM [3]	% Block at 200 nM [3]	IL-2 secretion, pg/ml, at 0.13 ug/ml, N = 1 [4]	IL-2 secretion, pg/ml, at 0.13 ug/ml, N = 2 [4]	IL-2 secretion, pg/ml, at 0.37 ug/ml, N = 1 [4]	IL-2 secretion, pg/ml, at 0.37 ug/ml, N = 2 [4]	also measured
97A8D1 fully human CTLA-4 antibody (human IgG1, kappa) (antibody, V domains shown, also called mAb49; mAb049) VH: QVQLVESGGGVVQPGRSLRLSCVASGFTFNNYGMNWVRQAPGKGLEWVAVIWYGGRNKFYADSVKGRFTISRDNSKNTLYLEMNSLRAEDTAVYYCARADWGGWFDPWGQGTLVTVSS VL: EIVLTQSPGTLSLSPGERATLSCRASQSVSSTYLAWYQQKPGQAPRLLIHGAFSRATGIPDRFSGSGSGPDFTLTISRLEPEDFAVYYCQQYGTSPFTFGPGTKVDIK	0%	33%	48.4%	84.1%	99%	99.2%	99.2%	99.2%	0%	6.1%	28.7%	67.8%	90.6%	95.2%	97.2%	98.4%	1520 pg/mL	1500 pg/mL	2110 pg/mL	1960 pg/mL	IC50 (read off the curve) [2]: 1 to 2 nM; IL-2 secretion, pg/ml, at 1.1 ug/ml, N = 1 [4]: 2660 pg/mL; IL-2 secretion, pg/ml, at 1.1 ug/ml, N = 2 [4]: 2610 pg/mL; IL-2 secretion, pg/ml, at 3.3 ug/ml, N = 1 [4]: 4660 pg/mL; IL-2 secretion, pg/ml, at 3.3 ug/ml, N = 2 [4]: 3330 pg/mL; IL-2 secretion, pg/ml, at 10 ug/ml, N = 1 [4]: 5080 pg/mL; IL-2 secretion, pg/ml, at 10 ug/ml, N = 2 [4]: 5560 pg/mL; IL-2 secretion, pg/ml, at 30 ug/ml, N = 1 [4]: 6090 pg/mL; IL-2 secretion, pg/ml, at 30 ug/ml, N = 2 [4]: 7540 pg/mL
31C12F3 fully human CTLA-4 antibody (human IgG1, kappa) (antibody, V domains shown, also called mAb010) VH: QVQLVESGGGVVQPGRSLILSCAASGFTFSSYGMHWVRQAPGKGLEWVAVVWYDGSNKYYADSVKGRFTISRDNSKNTLYLQMSSLRAEDTAVYYCARGGIVVPGLFEYWGQGSLVTVSS VL: DIQMTQSPSSLSASVGDRVAITCRTSQSISNLLNWYQQKPGKAPELLIYAPSSFQSGVPSRFRGSGSGTDFTLTISSLQPEDFATYYCQQSYSTPFTFGPGTKVDIK	0%	25.6%	48.1%	84.4%	99%	99.1%	99.1%	99.2%	0%	5.1%	30.4%	74.5%	95.9%	98.5%	99.1%	99.3%	1660 pg/mL	1630 pg/mL	1760 pg/mL	2000 pg/mL	IL-2 secretion, pg/ml, at 1.1 ug/ml, N = 1 [4]: 2650 pg/mL; IL-2 secretion, pg/ml, at 1.1 ug/ml, N = 2 [4]: 3630 pg/mL; IL-2 secretion, pg/ml, at 3.3 ug/ml, N = 1 [4]: 4420 pg/mL; IL-2 secretion, pg/ml, at 3.3 ug/ml, N = 2 [4]: 3330 pg/mL; IL-2 secretion, pg/ml, at 10 ug/ml, N = 1 [4]: 5020 pg/mL; IL-2 secretion, pg/ml, at 10 ug/ml, N = 2 [4]: 3810 pg/mL; IL-2 secretion, pg/ml, at 30 ug/ml, N = 1 [4]: 5920 pg/mL; IL-2 secretion, pg/ml, at 30 ug/ml, N = 2 [4]: 7370 pg/mL
92C8B6 fully human CTLA-4 antibody (human IgG1, kappa) (antibody, V domains shown, also called mAb42; mAb042) VH: QVQLVESGGGVVQPGRSLRLSCAASGFTFSNFGMHWVRQAPGKGLEWVAVIWYDGSNKYYADSVKGRFTISRDNSKNTLFLQMNGLRAEDTAVYYCAKGGILMAGTLDYWGQGTLVTVSS VL: DIQMTQSPSSLSASVGDRVTITCRASQSVSTYLNWYQQKPGKAPKLLIYAASSFQSGVPSRFSGSGSGTDFTLTISSLQPEDFATYFCQQSYSTPFTFGPGTKVDIK	0%	25%	36.7%	78.5%	98.7%	99.2%	99.2%	99.2%	0%	5.3%	21.4%	65.1%	93.7%	98.1%	98.9%	99.3%	1570 pg/mL	1390 pg/mL	2810 pg/mL	1860 pg/mL	IC50 (read off the curve) [2]: 1 to 2 nM; IL-2 secretion, pg/ml, at 1.1 ug/ml, N = 1 [4]: 3610 pg/mL; IL-2 secretion, pg/ml, at 1.1 ug/ml, N = 2 [4]: 2930 pg/mL; IL-2 secretion, pg/ml, at 3.3 ug/ml, N = 1 [4]: 4860 pg/mL; IL-2 secretion, pg/ml, at 3.3 ug/ml, N = 2 [4]: 3490 pg/mL; IL-2 secretion, pg/ml, at 10 ug/ml, N = 1 [4]: 6670 pg/mL; IL-2 secretion, pg/ml, at 10 ug/ml, N = 2 [4]: 5200 pg/mL; IL-2 secretion, pg/ml, at 30 ug/ml, N = 1 [4]: 7240 pg/mL; IL-2 secretion, pg/ml, at 30 ug/ml, N = 2 [4]: 6590 pg/mL
40C4C6 fully human CTLA-4 antibody (human IgG1, kappa) (antibody, V domains shown, also called mAb09; mAb009) VH: QVQLVESGGGVVQPGRSLRLSCAASGFTFSSYGMHWVRQAPGKGLEWVAVIWYDGRNKYYADSVKGRFTISRDNSKNTLYLQMNSLRAEDTAVYYCARASGSYSYYFDYWGQGTLVTVSS VL: DIQMTQSPSSLSASVGGRVTITCRASQSISSFLNWYQHELGKAPKLLIYGASSLQSGVPSRFSGSGSGTDFTLTISSLQPEDFATYYCQQTYSTPFTFGPGTKVDIK	0%	30%	52.4%	89.2%	99.1%	99.1%	99.1%	99.1%	0%	9.3%	35%	82.1%	98.1%	99.2%	99.4%	99.4%	2140 pg/mL	1830 pg/mL	2370 pg/mL	2160 pg/mL	IL-2 secretion, pg/ml, at 1.1 ug/ml, N = 1 [4]: 3200 pg/mL; IL-2 secretion, pg/ml, at 1.1 ug/ml, N = 2 [4]: 3010 pg/mL; IL-2 secretion, pg/ml, at 3.3 ug/ml, N = 1 [4]: 3770 pg/mL; IL-2 secretion, pg/ml, at 3.3 ug/ml, N = 2 [4]: 3620 pg/mL; IL-2 secretion, pg/ml, at 10 ug/ml, N = 1 [4]: 5270 pg/mL; IL-2 secretion, pg/ml, at 10 ug/ml, N = 2 [4]: 4810 pg/mL; IL-2 secretion, pg/ml, at 30 ug/ml, N = 1 [4]: 6840 pg/mL; IL-2 secretion, pg/ml, at 30 ug/ml, N = 2 [4]: 7410 pg/mL
